Data published in paper PMC12077210, “Di-HAMP domains of a cytoplasmic chemoreceptor modulate nucleoid array formation and downstream signaling” (mBio, 2024).

Assays:
[1] = target: FrzCD^ΔH2 (Myxococcus xanthus) (UniProt P43500); experiment: SEC-MALS; no DNA; Superdex 200 Increase 10/300, 50 mM NaCl, 50 mM Tris pH 8.0, about 25°C; 100 μL injected at 45 and 150 μM (FrzCD), 70 and 200 μM (ΔMA), 25 μM (ΔH1ΔH2), 25 and 65 μM (ΔH2), 25 μM (ΔH1)
[2] = target: FrzCD^ΔH1ΔH2 (Myxococcus xanthus) (UniProt P43500); experiment: as above
[3] = target: FrzCD^ΔMA (Myxococcus xanthus) (UniProt P43500); experiment: SEC-MALS; with 35 bp DNA in the injected sample: 70 μM FrzCD with 30 μM DNA; 200 μM FrzCD with 100 μM DNA; 200 μM ΔMA with 100 μM DNA; 100 μM ΔH2 with 50 μM DNA
[4] = target: FrzCD^ΔMA (Myxococcus xanthus) (UniProt P43500); experiment: SEC-MALS; no DNA; Superdex 200 Increase 10/300, 50 mM NaCl, 50 mM Tris pH 8.0, about 25°C; 100 μL injected at 45 and 150 μM (FrzCD), 70 and 200 μM (ΔMA), 25 μM (ΔH1ΔH2), 25 and 65 μM (ΔH2), 25 μM (ΔH1)
[5] = target: the molecule itself; experiment: as above
[6] = target: T1, His6-FrzCDΔH1ΔH2 (BLI) (Myxococcus xanthus, UniProt P43500 1-417, del31-136); experiment: BLI; EMSA: 50 mM Tris pH 7.4, 50 mM NaCl, 1 mM DTT, 10% glycerol, 25 C, 30 min, 0.5-2 uM DNA; BLI: 10 mM Tris pH 7.4, 150 mM NaCl, 25 C, 5 nM DNA; settings: protein: recombinant; tags: N-terminal His6 (pETphos); label: 5' biotin on forward strand; blunt
T1 sequence: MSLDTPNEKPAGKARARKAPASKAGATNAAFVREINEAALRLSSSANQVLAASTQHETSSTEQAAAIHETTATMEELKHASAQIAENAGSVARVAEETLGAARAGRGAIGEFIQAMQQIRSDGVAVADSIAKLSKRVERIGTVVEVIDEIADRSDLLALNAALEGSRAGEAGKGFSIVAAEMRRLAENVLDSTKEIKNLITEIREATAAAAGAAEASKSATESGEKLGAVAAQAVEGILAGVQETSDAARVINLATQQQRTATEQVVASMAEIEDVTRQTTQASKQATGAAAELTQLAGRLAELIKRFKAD

[7] = target: T2, His6-FrzCD (BLI) (Myxococcus xanthus, UniProt P43500 1-417); experiment: as above; settings: protein: recombinant; tags: N-terminal His6 (pETphos); label: 5' biotin on forward strand; blunt
T2 sequence: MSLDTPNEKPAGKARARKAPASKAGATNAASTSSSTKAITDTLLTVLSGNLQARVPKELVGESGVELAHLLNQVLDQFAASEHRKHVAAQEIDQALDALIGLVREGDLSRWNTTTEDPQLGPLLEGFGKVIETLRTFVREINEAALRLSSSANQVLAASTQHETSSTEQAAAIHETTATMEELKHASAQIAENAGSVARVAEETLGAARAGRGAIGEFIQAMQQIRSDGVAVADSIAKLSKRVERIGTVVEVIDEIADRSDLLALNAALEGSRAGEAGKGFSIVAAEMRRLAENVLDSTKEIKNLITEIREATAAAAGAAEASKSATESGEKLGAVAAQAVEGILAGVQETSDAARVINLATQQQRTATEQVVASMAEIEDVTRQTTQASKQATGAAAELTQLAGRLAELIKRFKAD

[8] = target: T3, His6-FrzCDΔH2 (BLI) (Myxococcus xanthus, UniProt P43500 1-417, del84-136); experiment: as above; settings: protein: recombinant; tags: N-terminal His6 (pETphos); label: 5' biotin on forward strand; blunt
T3 sequence: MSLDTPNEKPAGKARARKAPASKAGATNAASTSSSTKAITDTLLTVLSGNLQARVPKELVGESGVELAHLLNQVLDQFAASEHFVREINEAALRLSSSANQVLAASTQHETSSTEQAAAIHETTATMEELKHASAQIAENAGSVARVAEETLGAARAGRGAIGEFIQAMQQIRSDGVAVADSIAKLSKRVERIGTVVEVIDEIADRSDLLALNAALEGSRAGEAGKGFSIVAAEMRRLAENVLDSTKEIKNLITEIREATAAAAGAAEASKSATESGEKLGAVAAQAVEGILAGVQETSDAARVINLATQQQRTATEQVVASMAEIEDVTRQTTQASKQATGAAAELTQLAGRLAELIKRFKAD

[9] = target: T4, FrzCD (EMSA/SEC-MALS) (Myxococcus xanthus, UniProt P43500 1-417); experiment: EMSA; EMSA: 50 mM Tris pH 7.4, 50 mM NaCl, 1 mM DTT, 10% glycerol, 25 C, 30 min, 0.5-2 uM DNA; BLI: 10 mM Tris pH 7.4, 150 mM NaCl, 25 C, 5 nM DNA; settings: protein: recombinant, tags: C-terminal His6 (pHis17), chain copies: 2
T4 sequence: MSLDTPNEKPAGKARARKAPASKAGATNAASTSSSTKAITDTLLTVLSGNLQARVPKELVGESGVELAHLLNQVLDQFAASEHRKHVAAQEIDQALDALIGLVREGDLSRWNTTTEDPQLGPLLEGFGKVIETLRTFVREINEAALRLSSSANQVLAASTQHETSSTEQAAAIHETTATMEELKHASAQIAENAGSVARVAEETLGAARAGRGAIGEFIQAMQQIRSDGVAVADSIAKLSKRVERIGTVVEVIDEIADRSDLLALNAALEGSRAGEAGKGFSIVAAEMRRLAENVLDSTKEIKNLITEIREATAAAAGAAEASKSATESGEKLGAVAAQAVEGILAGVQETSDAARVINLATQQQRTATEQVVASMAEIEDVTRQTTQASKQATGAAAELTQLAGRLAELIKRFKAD

[10] = target: T4, FrzCD (EMSA/SEC-MALS); experiment: SEC-MALS; high-order oligomers at 200 uM protein, 100 uM DNA; EMSA: 50 mM Tris pH 7.4, 50 mM NaCl, 1 mM DTT, 10% glycerol, 25 C, 30 min, 0.5-2 uM DNA; BLI: 10 mM Tris pH 7.4, 150 mM NaCl, 25 C, 5 nM DNA; settings: protein: recombinant; tags: C-terminal His6 (pHis17); chain copies: 2; blunt
[11] = target: T5, FrzCDΔH2 (EMSA/SEC-MALS) (Myxococcus xanthus, UniProt P43500 1-417, del84-136); experiment: EMSA; EMSA: 50 mM Tris pH 7.4, 50 mM NaCl, 1 mM DTT, 10% glycerol, 25 C, 30 min, 0.5-2 uM DNA; BLI: 10 mM Tris pH 7.4, 150 mM NaCl, 25 C, 5 nM DNA; settings: protein: recombinant; tags: C-terminal His6 (pHis17); blunt
T5 sequence: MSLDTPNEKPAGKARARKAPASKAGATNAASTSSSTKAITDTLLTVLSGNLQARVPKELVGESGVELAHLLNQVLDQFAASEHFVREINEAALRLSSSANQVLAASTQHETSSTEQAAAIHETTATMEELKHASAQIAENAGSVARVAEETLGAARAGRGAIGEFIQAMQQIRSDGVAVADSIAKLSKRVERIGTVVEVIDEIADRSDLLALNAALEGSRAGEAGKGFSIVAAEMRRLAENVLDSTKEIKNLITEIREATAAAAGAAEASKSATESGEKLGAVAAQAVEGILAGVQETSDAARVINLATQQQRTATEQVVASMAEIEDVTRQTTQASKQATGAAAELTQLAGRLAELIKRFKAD

[12] = target: T6, FrzCDΔH1ΔH2 (EMSA) (Myxococcus xanthus, UniProt P43500 1-417, del32-136); experiment: as above; settings: protein: recombinant; tags: C-terminal His6 (pHis17); blunt
T6 sequence: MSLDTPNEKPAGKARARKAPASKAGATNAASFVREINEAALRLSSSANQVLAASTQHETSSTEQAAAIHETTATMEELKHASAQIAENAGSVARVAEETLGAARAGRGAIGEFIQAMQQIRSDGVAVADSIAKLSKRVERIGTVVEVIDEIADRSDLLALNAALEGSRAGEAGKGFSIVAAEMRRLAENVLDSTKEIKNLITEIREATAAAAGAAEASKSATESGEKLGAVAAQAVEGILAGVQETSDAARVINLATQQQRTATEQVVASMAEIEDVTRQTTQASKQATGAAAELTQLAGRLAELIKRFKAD

[13] = target: T7, FrzCDΔH1 (EMSA) (Myxococcus xanthus, UniProt P43500 1-417, del32-83); experiment: as above; settings: protein: recombinant; tags: C-terminal His6 (pHis17); blunt
T7 sequence: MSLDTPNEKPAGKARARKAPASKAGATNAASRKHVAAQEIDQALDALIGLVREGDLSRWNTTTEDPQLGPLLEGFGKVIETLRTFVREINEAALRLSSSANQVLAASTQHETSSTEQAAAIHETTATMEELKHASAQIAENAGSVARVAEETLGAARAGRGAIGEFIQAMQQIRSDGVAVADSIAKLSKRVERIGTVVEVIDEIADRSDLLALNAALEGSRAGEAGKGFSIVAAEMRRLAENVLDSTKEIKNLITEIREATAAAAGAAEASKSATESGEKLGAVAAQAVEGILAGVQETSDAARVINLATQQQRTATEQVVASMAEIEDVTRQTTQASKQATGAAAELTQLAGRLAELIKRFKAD

Molecule: FrzCD^ΔH2 (from UniProt P43500 1-417) (receptor)
- stoichiometry N [1]: 4

Molecule: FrzCD^ΔH1ΔH2 (from UniProt P43500 1-417) (receptor)
- stoichiometry N [2]: 4

Molecule: FrzCD^ΔMA (from UniProt P43500 1-136) (domain or fragment)
- stoichiometry N [3]: 2
- stoichiometry N [4]: 2

B1: FrzCD full-length (receptor, Myxococcus xanthus, UniProt P43500 1-417, looked up)
chain: MSLDTPNEKPAGKARARKAPASKAGATNAASTSSSTKAITDTLLTVLSGNLQARVPKELVGESGVELAHLLNQVLDQFAASEHRKHVAAQEIDQALDALIGLVREGDLSRWNTTTEDPQLGPLLEGFGKVIETLRTFVREINEAALRLSSSANQVLAASTQHETSSTEQAAAIHETTATMEELKHASAQIAENAGSVARVAEETLGAARAGRGAIGEFIQAMQQIRSDGVAVADSIAKLSKRVERIGTVVEVIDEIADRSDLLALNAALEGSRAGEAGKGFSIVAAEMRRLAENVLDSTKEIKNLITEIREATAAAAGAAEASKSATESGEKLGAVAAQAVEGILAGVQETSDAARVINLATQQQRTATEQVVASMAEIEDVTRQTTQASKQATGAAAELTQLAGRLAELIKRFKAD
notes: FrzCD, cytoplasmic methyl-accepting chemotaxis protein of Myxococcus xanthus; DB 1-30, H1 31-83, H2 84-136, MA 137-417; The C-terminal hexa-histidine tag is that of the pHis17 constructs; also called His6-FrzCD; wild type; source: E. coli (BL21-AI, BL21-DE3 or C43), purified (HisTrap, ion exchange)
- stoichiometry N [5]: 2

B2: FrzCD^ΔH1 (receptor, Myxococcus xanthus, UniProt P43500 1-417, looked up)
chain: MSLDTPNEKPAGKARARKAPASKAGATNAARKHVAAQEIDQALDALIGLVREGDLSRWNTTTEDPQLGPLLEGFGKVIETLRTFVREINEAALRLSSSANQVLAASTQHETSSTEQAAAIHETTATMEELKHASAQIAENAGSVARVAEETLGAARAGRGAIGEFIQAMQQIRSDGVAVADSIAKLSKRVERIGTVVEVIDEIADRSDLLALNAALEGSRAGEAGKGFSIVAAEMRRLAENVLDSTKEIKNLITEIREATAAAAGAAEASKSATESGEKLGAVAAQAVEGILAGVQETSDAARVINLATQQQRTATEQVVASMAEIEDVTRQTTQASKQATGAAAELTQLAGRLAELIKRFKAD
notes: FrzCD of Myxococcus xanthus with the HAMP1 domain (H1, residues 31 to 83) deleted; The limits of the deletion are the printed limits of the domain; The tag is that of the pHis17 constructs; source: E. coli (BL21-AI, BL21-DE3 or C43), purified (HisTrap, ion exchange)
- stoichiometry N [5]: 4

B3: 178 bp DNA (dsDNA)
DNA 1: GGATCGCATCTGCCTACATCCCCAGCTCCCGGTCGGTCCGCTCGGAACCTAGCCCGGGTCAAAGACCCGGGGTCTATGTTGACCCATTTGGTGGGGATGGGTCTAATTGGACCTGGCGTTTTTTCGCGCCATGGAAATGTCAAGGCCCGTGATTCCAGACTGTTGGGCAGGGAGTT
DNA 2: AACTCCCTGCCCAACAGTCTGGAATCACGGGCCTTGACATTTCCATGGCGCGAAAAAACGCCAGGTCCAATTAGACCCATCCCCACCAAATGGGTCAACATAGACCCCGGGTCTTTGACCCGGGCTAGGTTCCGAGCGGACCGACCGGGAGCTGGGGATGTAGGCAGATGCGATCC
- Kd [6]: 0.21 µM
- Kd [7]: 0.65 µM
- Kd [8]: 1.73 µM

B4: 8 bp DNA (dsDNA)
DNA 1: ACTGCAGT
DNA 2: ACTGCAGT
- binding result ([9]; blunt): binds

Molecule: AAAAAAAA (ssDNA) [8-base poly-A ssDNA]
- binding result [9]: binds

B5: 35 bp DNA (dsDNA)
DNA 1: GTCACCTGCTCTAGCTAATAGACTGAGCCGAGGTG
DNA 2: CACCTCGGCTCAGTCTATTAGCTAGAGCAGGTGAC
- binding result [10]: binds
- binding result [11]: binds
- binding result [12]: binds
- binding result [13]: binds
